Reference: publication PMC4609913 (2015)

Columns and labels:
[1] = target: T1, recombinant ADAM10 (A Disintegrin and Metalloproteinase 10) (UniProt O14672 20-748); assay: FRET
T1 chain: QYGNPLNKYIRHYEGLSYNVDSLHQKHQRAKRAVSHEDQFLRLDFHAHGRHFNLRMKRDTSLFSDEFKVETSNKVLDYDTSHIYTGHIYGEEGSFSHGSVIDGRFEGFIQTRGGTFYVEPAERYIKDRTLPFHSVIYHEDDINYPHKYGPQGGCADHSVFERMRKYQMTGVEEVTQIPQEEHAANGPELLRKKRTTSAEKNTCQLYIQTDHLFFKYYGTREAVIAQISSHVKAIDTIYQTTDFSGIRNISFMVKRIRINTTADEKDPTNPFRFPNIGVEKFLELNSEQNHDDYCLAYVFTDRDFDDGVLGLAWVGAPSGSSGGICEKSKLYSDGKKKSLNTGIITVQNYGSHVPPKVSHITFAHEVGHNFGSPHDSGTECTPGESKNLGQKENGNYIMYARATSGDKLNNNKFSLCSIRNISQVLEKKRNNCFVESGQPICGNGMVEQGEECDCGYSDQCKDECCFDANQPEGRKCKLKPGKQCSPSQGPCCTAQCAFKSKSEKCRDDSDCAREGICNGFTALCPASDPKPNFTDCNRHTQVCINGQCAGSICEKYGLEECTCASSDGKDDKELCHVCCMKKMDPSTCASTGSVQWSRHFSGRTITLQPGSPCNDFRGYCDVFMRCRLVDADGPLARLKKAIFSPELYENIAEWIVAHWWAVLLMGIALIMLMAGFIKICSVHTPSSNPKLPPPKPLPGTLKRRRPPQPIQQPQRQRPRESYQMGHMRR

[2] = target: recombinant ADAM17 (A Disintegrin and Metalloproteinase 17) (UniProt P78536 215-671); assay: FRET
recombinant ADAM17 (A Disintegrin and Metalloproteinase 17), sequence (P78536 215-671): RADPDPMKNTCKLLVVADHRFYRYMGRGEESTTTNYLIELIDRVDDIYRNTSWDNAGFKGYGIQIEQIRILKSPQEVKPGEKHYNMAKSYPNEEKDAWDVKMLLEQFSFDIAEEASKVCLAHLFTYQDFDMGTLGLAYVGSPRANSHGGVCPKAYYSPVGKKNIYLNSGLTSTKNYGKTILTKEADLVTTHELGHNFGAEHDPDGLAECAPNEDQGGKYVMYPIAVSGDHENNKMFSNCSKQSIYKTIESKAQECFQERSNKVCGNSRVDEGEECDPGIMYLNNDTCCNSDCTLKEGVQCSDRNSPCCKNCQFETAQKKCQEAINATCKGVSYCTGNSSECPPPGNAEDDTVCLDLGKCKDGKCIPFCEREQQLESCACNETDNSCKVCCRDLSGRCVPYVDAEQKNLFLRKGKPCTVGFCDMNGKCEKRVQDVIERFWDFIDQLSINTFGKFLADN

Ki [1]: > 14 µM
Ki [2]: > 14 µM
B1: recombinant His-tagged human ADAM12 prodomain (amino acids 29-206) (domain or fragment)
chain: RGVSLWNQGRADEVVSASVGSGDLWIPVKSFDSKNHPEVLNIRLQRESKELIINLERNEGLIASSFTETHYLQDGTDVSLARNYTVILGHCYYHGHVRGYSDSAVSLSTCSGLRGLIVFENESYVLEPMKSATNRYKLFPAKKLKSVRGSCGSHHNTPNLAAKNVFPPPSQTWARRHK
